This note sets out measurements from patent publication US20110034372A1.

The target of assay [1] is cell surface GDF-8 binding proteins on L6 myoblasts. In words: I-125 labeled GDF-8 receptor-ligand binding assay on myoblast cells.
Assay [2] deals with myostatin mature C-terminal dimer (purified from CHO cell conditioned medium) (UniProt O08689). In words: inhibition of labeled myostatin binding to Act RIIB-transfected COS-7 cells.
The target is the same in assay [3]. Kind of assay: inhibition of labeled myostatin binding to Act RIIB-transfected COS-7 cells; reference: follistatin Ki of approximately 470 pM.

For orientation: Kd means the concentration at which binding is half-saturated. Low values mean higher affinity, high ones lower affinity. One may read the Ki as a dissociation constant, usually derived from enzyme kinetics or from competition with a known ligand. A high value points to a looser hold on the target.

myostatin mature C-terminal dimer (purified from CHO cell conditioned medium), sequence (O08689 268-376 limits assumed): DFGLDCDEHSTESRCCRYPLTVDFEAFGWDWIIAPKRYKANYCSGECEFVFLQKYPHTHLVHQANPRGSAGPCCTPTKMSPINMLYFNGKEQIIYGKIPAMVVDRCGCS
Recombinant human GDF-8 (rhGDF-8) homodimer, sequence (O14793 267-374): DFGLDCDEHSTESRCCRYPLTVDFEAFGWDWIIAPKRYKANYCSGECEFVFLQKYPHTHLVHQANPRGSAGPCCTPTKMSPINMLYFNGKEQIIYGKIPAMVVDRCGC

Turning to “Recombinant human GDF-8 (rhGDF-8) homodimer (from UniProt O14793 267-374) (ligand)”, in assay [1], the Kd was 0.37 nM.
As to follistatin, the Ki in assay [2] is 0.47 nM.
“myostatin prodomain peptide (purified from CHO cell conditioned medium) (from UniProt O08689 25-267)” had a Ki, fold relative to the Ki of follistatin in assay [3] of 50 fold.
